The source of these data is article PMC5609712 (Molecular cell, 2017).

First the molecules themselves.
T1: Mre11, flag-tagged, purified alone (human, UniProt P49959 1-708)
T1 sequence (looked up): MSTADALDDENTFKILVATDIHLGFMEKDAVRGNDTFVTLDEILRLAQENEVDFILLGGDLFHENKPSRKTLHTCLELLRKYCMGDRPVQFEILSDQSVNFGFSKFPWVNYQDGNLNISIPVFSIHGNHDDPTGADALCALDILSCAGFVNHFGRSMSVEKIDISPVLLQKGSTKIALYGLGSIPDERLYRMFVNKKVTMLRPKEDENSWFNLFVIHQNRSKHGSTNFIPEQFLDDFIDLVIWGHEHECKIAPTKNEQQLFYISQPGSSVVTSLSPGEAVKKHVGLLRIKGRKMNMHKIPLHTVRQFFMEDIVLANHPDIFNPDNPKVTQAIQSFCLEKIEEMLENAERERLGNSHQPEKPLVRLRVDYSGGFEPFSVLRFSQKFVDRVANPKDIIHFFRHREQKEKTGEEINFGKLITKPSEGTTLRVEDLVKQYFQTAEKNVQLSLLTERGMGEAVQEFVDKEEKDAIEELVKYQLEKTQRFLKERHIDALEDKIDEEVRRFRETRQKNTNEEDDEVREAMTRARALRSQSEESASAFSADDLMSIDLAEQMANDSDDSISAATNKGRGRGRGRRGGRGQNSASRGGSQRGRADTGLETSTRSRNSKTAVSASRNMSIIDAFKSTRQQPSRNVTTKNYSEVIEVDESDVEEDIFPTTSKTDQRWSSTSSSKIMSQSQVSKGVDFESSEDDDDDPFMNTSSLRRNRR

B1: Nbs1, flag-tagged, purified alone (natural protein, human, UniProt O60934 1-754, looked up)
chain: MWKLLPAAGPAGGEPYRLLTGVEYVVGRKNCAILIENDQSISRNHAVLTANFSVTNLSQTDEIPVLTLKDNSKYGTFVNEEKMQNGFSRTLKSGDGITFGVFGSKFRIEYEPLVACSSCLDVSGKTALNQAILQLGGFTVNNWTEECTHLVMVSVKVTIKTICALICGRPIVKPEYFTEFLKAVESKKQPPQIESFYPPLDEPSIGSKNVDLSGRQERKQIFKGKTFIFLNAKQHKKLSSAVVFGGGEARLITEENEEEHNFFLAPGTCVVDTGITNSQTLIPDCQKKWIQSIMDMLQRQGLRPIPEAEIGLAVIFMTTKNYCDPQGHPSTGLKTTTPGPSLSQGVSVDEKLMPSAPVNTTTYVADTESEQADTWDLSERPKEIKVSKMEQKFRMLSQDAPTVKESCKTSSNNNSMVSNTLAKMRIPNYQLSPTKLPSINKSKDRASQQQQTNSIRNYFQPSTKKRERDEENQEMSSCKSARIETSCSLLEQTQPATPSLWKNKEQHLSENEPVDTNSDNNLFTDTDLKSIVKNSASKSHAAEKLRSNKKREMDDVAIEDEVLEQLFKDTKPELEIDVKVQKQEEDVNVRKRPRMDIETNDTFSDEAVPESSKISQENEIGKKRELKEDSLWSAKEISNNDKLQDDSEMLPKKLLLTEFRSLVIKNSTSRNPSGINDDYGQLKNFKKFKKVTYPGAGKLPHIIGGSDLIAHHARKNTELEEWLRQEMEVQNQHAKEESLADDLFRYNPYLKRRR
B2: Exonuclease 1, biotinylated, full length (enzyme, human, UniProt Q9UQ84 1-846, looked up)
chain: MGIQGLLQFIKEASEPIHVRKYKGQVVAVDTYCWLHKGAIACAEKLAKGEPTDRYVGFCMKFVNMLLSHGIKPILVFDGCTLPSKKEVERSRRERRQANLLKGKQLLREGKVSEARECFTRSINITHAMAHKVIKAARSQGVDCLVAPYEADAQLAYLNKAGIVQAIITEDSDLLAFGCKKVILKMDQFGNGLEIDQARLGMCRQLGDVFTEEKFRYMCILSGCDYLSSLRGIGLAKACKVLRLANNPDIVKVIKKIGHYLKMNITVPEDYINGFIRANNTFLYQLVFDPIKRKLIPLNAYEDDVDPETLSYAGQYVDDSIALQIALGNKDINTFEQIDDYNPDTAMPAHSRSHSWDDKTCQKSANVSSIWHRNYSPRPESGTVSDAPQLKENPSTVGVERVISTKGLNLPRKSSIVKRPRSAELSEDDLLSQYSLSFTKKTKKNSSEGNKSLSFSEVFVPDLVNGPTNKKSVSTPPRTRNKFATFLQRKNEESGAVVVPGTRSRFFCSSDSTDCVSNKVSIQPLDETAVTDKENNLHESEYGDQEGKRLVDTDVARNSSDDIPNNHIPGDHIPDKATVFTDEESYSFESSKFTRTISPPTLGTLRSCFSWSGGLGDFSRTPSPSPSTALQQFRRKSDSPTSLPENNMSDVSQLKSEESSDDESHPLREEACSSQSQESGEFSLQSSNASKLSQCSSKDSDSEESDCNIKLLDSQSDQTSKLRLSHFSKKDTPLRNKVPGLYKSSSADSLSTTKIKPLGPARASGLSKKPASIQKRKHHNAENKPGLQIKLNELWKNFGFKKDSEKLPPCKKPLSPVRDNIQLTPEAEEDIFNKPECGRVQRAIFQ
modifications: biotinylated (co-infected with a BirA virus)
B3: Exo1(NTD), catalytic Exo1 core, N-terminal domain encoding amino acids 1-352, biotinylated (domain or fragment, human, UniProt Q9UQ84 1-352, looked up)
chain: MGIQGLLQFIKEASEPIHVRKYKGQVVAVDTYCWLHKGAIACAEKLAKGEPTDRYVGFCMKFVNMLLSHGIKPILVFDGCTLPSKKEVERSRRERRQANLLKGKQLLREGKVSEARECFTRSINITHAMAHKVIKAARSQGVDCLVAPYEADAQLAYLNKAGIVQAIITEDSDLLAFGCKKVILKMDQFGNGLEIDQARLGMCRQLGDVFTEEKFRYMCILSGCDYLSSLRGIGLAKACKVLRLANNPDIVKVIKKIGHYLKMNITVPEDYINGFIRANNTFLYQLVFDPIKRKLIPLNAYEDDVDPETLSYAGQYVDDSIALQIALGNKDINTFEQIDDYNPDTAMPAHSR

Holding throughout (assay): pull-down
In assay [1] the target is B2.
Assay [2] deals with Mre11-Rad50-Nbs1 complex (triple flag on Mre11) (human, UniProt P49959 1-708; Q92878 1-1312; O60934 1-754).
Assay [3] addresses T1, Mre11, flag-tagged, purified alone.

Sequence of Mre11-Rad50-Nbs1 complex (triple flag on Mre11) (Q92878 whole entry, one chain of several): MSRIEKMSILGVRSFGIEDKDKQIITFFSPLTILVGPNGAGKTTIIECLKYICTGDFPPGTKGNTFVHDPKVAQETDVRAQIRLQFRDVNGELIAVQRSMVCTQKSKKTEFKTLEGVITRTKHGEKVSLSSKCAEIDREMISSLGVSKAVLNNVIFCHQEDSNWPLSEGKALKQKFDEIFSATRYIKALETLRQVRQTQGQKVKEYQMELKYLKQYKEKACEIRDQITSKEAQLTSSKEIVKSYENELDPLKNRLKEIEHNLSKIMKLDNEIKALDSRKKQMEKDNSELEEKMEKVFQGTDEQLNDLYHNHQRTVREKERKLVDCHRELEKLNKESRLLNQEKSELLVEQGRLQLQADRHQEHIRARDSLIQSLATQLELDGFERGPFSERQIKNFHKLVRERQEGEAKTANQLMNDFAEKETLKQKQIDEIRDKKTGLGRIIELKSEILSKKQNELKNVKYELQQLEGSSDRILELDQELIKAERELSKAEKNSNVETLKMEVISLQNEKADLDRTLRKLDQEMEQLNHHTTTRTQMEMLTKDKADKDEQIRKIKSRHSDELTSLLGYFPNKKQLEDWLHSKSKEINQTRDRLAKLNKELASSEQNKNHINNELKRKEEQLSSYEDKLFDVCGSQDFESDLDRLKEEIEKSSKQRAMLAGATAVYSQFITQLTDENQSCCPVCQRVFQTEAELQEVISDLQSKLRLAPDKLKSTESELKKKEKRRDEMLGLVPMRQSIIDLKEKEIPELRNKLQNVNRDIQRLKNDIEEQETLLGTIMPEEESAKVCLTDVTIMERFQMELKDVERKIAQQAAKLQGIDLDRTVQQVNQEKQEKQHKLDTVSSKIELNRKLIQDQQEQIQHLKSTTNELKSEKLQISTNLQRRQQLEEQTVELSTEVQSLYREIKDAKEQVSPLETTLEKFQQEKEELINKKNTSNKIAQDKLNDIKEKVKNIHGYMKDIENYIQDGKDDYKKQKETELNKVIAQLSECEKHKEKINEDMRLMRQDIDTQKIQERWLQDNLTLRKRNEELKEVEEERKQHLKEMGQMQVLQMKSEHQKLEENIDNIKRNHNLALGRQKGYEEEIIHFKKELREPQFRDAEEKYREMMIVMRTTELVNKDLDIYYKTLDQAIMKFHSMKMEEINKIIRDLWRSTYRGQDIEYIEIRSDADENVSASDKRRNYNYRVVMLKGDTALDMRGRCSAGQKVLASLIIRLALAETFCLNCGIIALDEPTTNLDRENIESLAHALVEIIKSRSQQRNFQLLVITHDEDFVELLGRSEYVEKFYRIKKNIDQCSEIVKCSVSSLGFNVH

On to B1, for which the binding result in assay [1] was “binds”. Consider B2, for which the binding result in assay [2] is “binds”. For the molecule B3, the binding result in assay [3] was “binds”.
